{"source": "paper PMC6746150", "about": "“Long-Term Local Injection of RAGE-Aptamer Suppresses the Growth of Malignant Melanoma in Nude Mice”", "binders": {"B1": {"name": "RAGE-aptamer (XNA)", "DNA": "CCTGATATGGTGTCACCGCCGCCTTAGTATTGGTGTCTAC", "modifications": "phosphorothioate nucleotides at capital letters: ccTgATATggTgTcAccgccgccTTAgTATTggTgTcTAc (DNA)"}}, "molecular_target": "V-domain RAGE (vRAGE) (human, UniProt Q15109 23-121)", "sequence (Q15109 23-121)": "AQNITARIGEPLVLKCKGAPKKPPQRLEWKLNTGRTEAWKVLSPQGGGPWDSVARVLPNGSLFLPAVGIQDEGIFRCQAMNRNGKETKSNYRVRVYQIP", "assay": "QCM (27 MHz); vRAGE immobilized; N = 3; 27-MHz QCM, vRAGE immobilized on sensor; buffer, salt, pH and temperature not stated (as described previously, ref 16)", "data": [{"binder": "B1", "values": [{"measurement": "Kd", "value": "4.44 ± 0.56", "unit": "nM"}]}]}
